US20250263472A1 (IGGENIX, published 2025)

Biological target: T1, Natural Ara h 6 (InBio) (peanut, UniProt Q647G9 22-145)
T1 sequence (looked up): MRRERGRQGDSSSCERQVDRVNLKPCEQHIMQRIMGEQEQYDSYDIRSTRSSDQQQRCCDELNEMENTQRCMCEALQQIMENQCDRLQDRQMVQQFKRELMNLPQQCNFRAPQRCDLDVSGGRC
Assay: told in the description of Combination-1; assay not named

B1: Molecule-1a (bispecific antibody, human IgG4 S228P, kappa)
heavy: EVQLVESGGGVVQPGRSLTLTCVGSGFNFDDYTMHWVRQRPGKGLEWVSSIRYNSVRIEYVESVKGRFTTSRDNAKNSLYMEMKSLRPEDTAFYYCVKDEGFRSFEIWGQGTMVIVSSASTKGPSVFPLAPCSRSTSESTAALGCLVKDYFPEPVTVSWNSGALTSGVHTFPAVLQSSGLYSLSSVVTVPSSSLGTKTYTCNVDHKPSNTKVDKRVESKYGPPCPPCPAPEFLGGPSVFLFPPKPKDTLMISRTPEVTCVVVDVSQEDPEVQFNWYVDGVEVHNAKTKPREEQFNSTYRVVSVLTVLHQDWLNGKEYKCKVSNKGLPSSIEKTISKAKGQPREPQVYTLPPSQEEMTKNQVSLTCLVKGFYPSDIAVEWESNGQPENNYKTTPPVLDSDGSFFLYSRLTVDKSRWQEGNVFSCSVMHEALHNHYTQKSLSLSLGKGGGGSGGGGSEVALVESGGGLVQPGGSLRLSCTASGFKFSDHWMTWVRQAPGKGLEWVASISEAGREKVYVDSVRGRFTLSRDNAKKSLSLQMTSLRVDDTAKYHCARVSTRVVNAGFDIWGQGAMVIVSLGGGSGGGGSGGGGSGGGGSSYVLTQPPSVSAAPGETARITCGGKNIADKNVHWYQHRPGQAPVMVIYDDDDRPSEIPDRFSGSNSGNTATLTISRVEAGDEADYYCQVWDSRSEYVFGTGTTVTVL
light: DIVMTQSPLSLPVTPGEPASISCRSTQSLEHSNGYHYLDWYVQKAGQSPQLLISLGSKRASGVPDRFSGSVSGTDFTLKISRVEAEDVGVYYCMQALQTWTFGQGTKVEIKRTVAAPSVFIFPPSDEQLKSGTASVVCLLNNFYPREAKVQWKVDNALQSGNSQESVTEQDSKDSTYSLSSTLTLSKADYEKHKVYACEVTHQGLSSPVTKSFNRGEC
notes: CMC liabilities removed; also called Molecule-1 (of Combination-1)
Q: Does B1 bind?
A: binds
